In the experiment the target is F-actin (UniProt P68135). The experiment in a line: cryoEM (raw images and 2D image averages); full-length myosin-5a with F-actin free in solution, flash frozen in the presence of ATP, low calcium concentration, no cargo adaptor molecules; 1 myosin molecule per 2.5 actin subunits.

On to “full-length myosin-5a (from UniProt Q99104 1-1853; P0DP26 1-149) (complex)”, for which the percent of myosin molecules attached (from counts per um actin) is less than 10% and the percent of observed myosin molecules attached by both heads to one actin filament was found to be 55%.

The record behind these values is article doi:10.1101/2023.07.16.549178.
